This is an account of results in publication PMC6926458.

Assay [1] concerns the target Fissurella latimarginata hemocyanin, native (Fissurella latimarginata). Briefly: negative-stain transmission electron microscopy; hemocyanins 0.6 mg/ml on parlodion-coated copper grids, 1-2% uranyl acetate; didecamers, decamers and dissociated structures counted in about 20 images.
In assay [2] the target is Concholepas concholepas hemocyanin, native (Concholepas concholepas). The assay is described as above.

“Fissurella latimarginata hemocyanin, native (natural protein)” came in with a stoichiometry N in assay [1] of 20. For the substance “Concholepas concholepas hemocyanin, native (complex)”, the stoichiometry N in assay [2] is 20.

As usually defined, the stoichiometry N is a count of units in the complex or per binding partner.
